Tests used:
[1] = biological target: fluoroacetate dehalogenase (FAcD) RPA1163 (Rhodopseudomonas palustris, UniProt Q6NAM1, Y219F); assay: isothermal microcalorimetry steady-state kinetics; assay type: biochemical; details: read-out: Fluoroacetate / Km; 100 mM Tris-H2SO4 pH 8.5, 30°C
[2] = biological target: fluoroacetate dehalogenase (FAcD) RPA1163 (Rhodopseudomonas palustris, UniProt Q6NAM1, F40A); assay: isothermal microcalorimetry steady-state kinetics; assay type: biochemical; details: read-out: Fluoroacetate / Km; 100 mM Tris-H2SO4 pH 8.5, 30°C
[3] = biological target: fluoroacetate dehalogenase (FAcD) RPA1163 (Rhodopseudomonas palustris, UniProt Q6NAM1, W185F); assay: isothermal microcalorimetry steady-state kinetics; assay type: biochemical; details: read-out: Fluoroacetate / Km; 100 mM Tris-H2SO4 pH 8.5, 30°C
[4] = biological target: fluoroacetate dehalogenase (FAcD) RPA1163 (Rhodopseudomonas palustris, UniProt Q6NAM1, H155N); assay: isothermal microcalorimetry steady-state kinetics; assay type: biochemical; details: read-out: Fluoroacetate / Km; 100 mM Tris-H2SO4 pH 8.5, 30°C
[5] = biological target: fluoroacetate dehalogenase (FAcD) RPA1163 (Rhodopseudomonas palustris, UniProt Q6NAM1, W156H); assay: isothermal microcalorimetry steady-state kinetics; assay type: biochemical; details: read-out: Fluoroacetate / Km; 100 mM Tris-H2SO4 pH 8.5, 30°C
O=C(O)CCl = assay: isothermal microcalorimetry steady-state kinetics; assay type: biochemical, Rhodopseudomonas palustris; details: 100 mM Tris-H2SO4 pH 8.5, 30°C
crystal structure = biological target: the molecule itself; assay: crystal structure

## O=C(O)CF [fluoroacetate]
[1]
  Km: 1700 ± 200 µM
[2]
  Km: 4400 ± 800 µM
[3]
  Km: 3300 ± 600 µM
[4]
  Km: 2900 ± 200 µM
[5]
  Km: 8000 ± 3000 µM

## fluoroacetate dehalogenase (FAcD) RPA1163 (Rhodopseudomonas palustris CGA009; F40A)
O=C(O)CCl
  Km: 1500 ± 400 µM
  kcat: 0.000483 ± 0.00015 s⁻¹
  kcat/Km: 0.32 M⁻¹ s⁻¹

## fluoroacetate dehalogenase (FAcD) RPA1163 (Rhodopseudomonas palustris CGA009; H155N)
O=C(O)CCl
  Km: 2000 ± 300 µM
  kcat: 0.0883 ± 0.00833 s⁻¹
  kcat/Km: 45 M⁻¹ s⁻¹

## fluoroacetate dehalogenase (FAcD) RPA1163 (Rhodopseudomonas palustris CGA009; W156H)
O=C(O)CCl
  Km: 6000 ± 1000 µM
  kcat: 0.00167 ± 0.000333 s⁻¹
  kcat/Km: 0.27 M⁻¹ s⁻¹

## fluoroacetate dehalogenase (FAcD) RPA1163 (Rhodopseudomonas palustris CGA009; W185F)
O=C(O)CCl
  Km: 1000 ± 300 µM
  kcat: 0.00533 ± 0.000667 s⁻¹
  kcat/Km: 5 M⁻¹ s⁻¹

## fluoroacetate dehalogenase (FAcD) RPA1163 (Rhodopseudomonas palustris CGA009; Y219F)
O=C(O)CCl
  Km: 1000 ± 70 µM
  kcat: 0.007 ± 0.000667 s⁻¹
  kcat/Km: 7 M⁻¹ s⁻¹

B1: fluoroacetate dehalogenase RPA1163 (wild type) (enzyme, Rhodopseudomonas palustris CGA009)
chain: MPDLADLFPGFGSEWINTSSGRIFARVGGDGPPLLLLHGFPQTHVMWHRVAPKLAERFKVIVADLPGYGWSDMPESDEQHTPYTKRAMAKQLIEAMEQLGHVHFALAGHDRGARVSYRLALDSPGRLSKLAVLDILPTYEYWQRMNRAYALKIYHWSFLAQPAPLPENLLGGDPDFYVKAKLASWTRAGDLSAFDPRAVEHYRIAFADPMRRHVMCEDYRAGAYADFEHDKIDVEAGNKIPVPMLALWGASGIAQSAATPLDVWRKWASDVQGAPIESGHFLPEEAPDQTAEALVRFFSAAP
Crystal structure
  stoichiometry N: 2

Reference: paper PMC3101105 (Journal of the American Chemical Society, 2011)
